Results on 1 molecule are retold here after patent US20240382587A1 (TRUSTEES OF INDIANA UNIVERSITY, published 2024).

In the assay the target is T1, recombinant human B domain deleted (BDD)-FVIII (Xyntha) (human, UniProt P00451 20-2351).
T1 sequence (looked up): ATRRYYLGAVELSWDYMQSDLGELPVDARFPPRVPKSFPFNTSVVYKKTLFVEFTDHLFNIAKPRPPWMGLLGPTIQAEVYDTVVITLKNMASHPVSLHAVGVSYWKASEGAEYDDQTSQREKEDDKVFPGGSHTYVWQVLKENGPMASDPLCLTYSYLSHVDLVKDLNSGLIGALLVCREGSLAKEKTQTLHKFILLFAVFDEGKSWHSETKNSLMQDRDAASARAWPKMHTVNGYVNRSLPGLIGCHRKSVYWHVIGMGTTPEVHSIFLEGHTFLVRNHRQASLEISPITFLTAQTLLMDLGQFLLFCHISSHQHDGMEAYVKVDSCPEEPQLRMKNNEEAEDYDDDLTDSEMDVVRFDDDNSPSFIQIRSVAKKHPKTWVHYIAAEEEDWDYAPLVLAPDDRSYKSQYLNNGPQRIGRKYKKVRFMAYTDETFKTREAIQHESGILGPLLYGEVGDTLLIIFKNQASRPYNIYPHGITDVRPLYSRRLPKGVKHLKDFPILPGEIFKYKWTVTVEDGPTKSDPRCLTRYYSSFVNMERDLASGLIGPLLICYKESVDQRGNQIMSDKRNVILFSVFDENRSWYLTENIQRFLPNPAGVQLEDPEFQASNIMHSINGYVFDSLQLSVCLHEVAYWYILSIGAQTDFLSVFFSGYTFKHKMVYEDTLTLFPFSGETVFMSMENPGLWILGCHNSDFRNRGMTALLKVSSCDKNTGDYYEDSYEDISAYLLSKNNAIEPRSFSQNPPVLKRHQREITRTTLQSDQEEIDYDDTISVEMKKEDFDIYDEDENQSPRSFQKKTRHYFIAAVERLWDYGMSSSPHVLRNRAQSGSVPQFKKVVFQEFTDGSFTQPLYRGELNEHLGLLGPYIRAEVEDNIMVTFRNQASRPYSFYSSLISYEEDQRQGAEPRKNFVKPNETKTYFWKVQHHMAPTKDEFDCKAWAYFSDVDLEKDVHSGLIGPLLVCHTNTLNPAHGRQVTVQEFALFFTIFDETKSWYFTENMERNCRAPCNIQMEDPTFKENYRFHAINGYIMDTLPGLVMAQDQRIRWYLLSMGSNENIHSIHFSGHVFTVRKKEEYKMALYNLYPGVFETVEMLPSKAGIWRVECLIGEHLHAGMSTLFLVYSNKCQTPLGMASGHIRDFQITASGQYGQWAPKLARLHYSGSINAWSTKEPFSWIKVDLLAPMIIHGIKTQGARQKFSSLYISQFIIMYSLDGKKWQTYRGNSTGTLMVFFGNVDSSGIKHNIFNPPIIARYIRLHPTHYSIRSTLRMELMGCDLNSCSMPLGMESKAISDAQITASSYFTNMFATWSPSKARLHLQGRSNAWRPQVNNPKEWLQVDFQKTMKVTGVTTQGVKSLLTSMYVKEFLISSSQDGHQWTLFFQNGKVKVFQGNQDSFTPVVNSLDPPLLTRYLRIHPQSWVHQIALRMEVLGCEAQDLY
In words: cell-based or functional assay.

B1: FVIII TRUC (TCR fusion construct: BO2C11 FVIII scFv fused to the N-terminus of murine CD3 epsilon) (scFv)
chain: EIALTQSPGTLSLSPGERATLSCRASQSFSSSYLAWYQQKPGQAPRLLIYGASTRATGIPDRFSGSGSGTDFTLTISRLEPEDFAVYYCQKYGTSAITFGQGTRLEIKGGGGGSGGGGSGGGGSQVQLVQSGAEVKKPGASVKVSCKVSGYTLTELPVHWVRQAPGKGLEWVGSFDPESGESIYAREFQGSVTMTADTSTDIAYMELSSLRSDDTAVYYCAVPDPDAFDIWGQGTMVTVSSGGGGSGGGGSGGGGSDAENIEYKVSISGTSVELTCPLDSDENLKWEKNGQELPQKHDKHLVLQDFSEVEDSGYYVCYTPASNKNTYLYLKARVCEYCVEVDLTAVAIIIIVDICITLGLLMVIYYWSKNRKAKAKPVTRGTGAGSRPRGQNKERPPPVPNPDYEPIRKGQRDLYSGLNQRAV
Consider B1, for which the “CTLA4 expression in TRUC Tregs in vitro” value worked out at 5 fold.
